Here are results for ten molecules from patent publication US6706266, “Oncostatin M antagonists” (SmithKline Beecham Corporation).

Changes are numbered by the printed parent chain. Numbers in names are those of the source. Where “and” joins values, the source holds several entries; their conditions need not be identical. Identical values can stand only once.

B1: ADR147 (aptamer raised to CD95 ligand) (ssRNA)
RNA: GGGAGGACGAUGCGGUUAUACUAAGCUGCGGUUAGCGACAGCCCUCCCUAGCGCCUCAGACGACUCGCCCGA
modifications: 2'-F pyrimidines
B2: OSM-GST mutant Q25A (ligand, not shown: a dimerising Fc or GST; large carriers; small tags and cut ends)
chain: AAIGSCSKEYRVLLGQLQKQTDLMADTSRLLDPYIRIQGLDVPKLREHCRERPGAFPSEETLRGLGRRGFLQTLNATLGCVLHRLADLEQRLPKAQDLERSGLNIEDLEKLQMARPNILGLRNNIYCMAQLLDNSDTAEPTKAGRGASQPPTPTPASDAFQRKLEGCRFLHGYHRFMHSVGRVFSKWGESPNRSRR
notes: Alanine mutant of m4; also called (26)Q25A; 26 Q25A
B3: OSM-GST mutant Y126A (ligand, not shown: a dimerising Fc or GST; large carriers; small tags and cut ends)
chain: B2 chain with A25Q, Y126A
notes: Alanine mutant of m4; also called (24)Y126A; 24 Y126A
B4: OSM-GST mutant R11A (ligand, not shown: a dimerising Fc or GST; large carriers; small tags and cut ends)
chain: B2 chain with R11A, A25Q
notes: Alanine mutant of m4; also called (5)R11A; 5 R11A
B5: OSM-GST mutant Y10A (ligand, not shown: a dimerising Fc or GST; large carriers; small tags and cut ends)
chain: B2 chain with Y10A, A25Q
notes: Alanine mutant of m4; also called (4)Y10A; 4 Y10A
B6: OSM-GST mutant T21A (ligand, not shown: a dimerising Fc or GST; large carriers; small tags and cut ends)
chain: B2 chain with T21A, A25Q
notes: Alanine mutant of m4; also called (14)T21A; 14 T21A
B7: OSM-GST mutant S7A (ligand, not shown: a dimerising Fc or GST; large carriers; small tags and cut ends)
chain: B2 chain with S7A, A25Q
notes: Alanine mutant of m4; also called (1)S7A; 1 S7A
B8: OSM-GST mutant Q130A (ligand, not shown: a dimerising Fc or GST; large carriers; small tags and cut ends)
chain: B2 chain with A25Q, Q130A
notes: Alanine mutant of m4; also called (25)Y130A; 25 Q130A
B9: OSM-GST mutant R122A (ligand, not shown: a dimerising Fc or GST; large carriers; small tags and cut ends)
chain: B2 chain with A25Q, R122A
notes: Alanine mutant of m4; also called (21)R122A; 21 R122A

One series addresses T1, oncostatin M (hOSM, mature) (Homo sapiens, UniProt P13725 SEQ:26-221).
T1 sequence: B2 chain with A25Q
Put plainly: competition; little activity in OSM/gp130 ELISA. The note with it: tags: expressed in E. coli as GST fusion, GST removed by thrombin cleavage. The method, then:
Effect of Point Mutations on the Ability of OSM-GST to Compete with Wild Type OSM Binding to gp130-Fc in an ELISA Nunc Immunoplates (F6 Maxisorp, Life Technologies) were coated overnight (4° C.) with wild type OSM (produced according to Example 7a); 50 µl/well, 1 µg/ml in carbonate/bicarbonate buffer pH 9.4). Plates were washed (×6 in PBS 0.05% tween 20, using Skatron Plate washer), tapped dry and blocked to reduce non-specific binding (200 µl/well, 1% BSA/PBS). Following 1 h incubation (room temperature on a shaking platform) the plates were tapped dry and wild type (wt) or mutant OSM-GST from Example 9b added (50 µl/well, 20–0.002 µg/ml, titrated in 1%BSA/PBS). As a positive control polyclonal anti-human OSM antibody (R&D Systems) was also tested (20–0.02 µg/ml). […] Following a 5 h incubation (room temperature on a shaking platform) the plates were washed (×6) and developed using ELISA Amplification System (Life Technologies) as manufacturer's instructions and the OD measured at 490 nm. On each plate the total binding was determined by gp130-Fc/conjugate and OSM in the presence of 1%BSA/PBS, and non-specific binding by gp130-Fc/conjugate in absence of OSM, or conjugate binding to OSM in absence of gp130-Fc. […]
(In general: ELISA stands for enzyme-linked immunosorbent assay.)
Regarding B1, the binding result is listed as “no binding”.

Another series deals with T2, gp130-Fc fusion protein (human, UniProt P40189 23-619).
T2 construct: extracellular domain; not shown: Fc fragment of human IgG1
T2 sequence (looked up): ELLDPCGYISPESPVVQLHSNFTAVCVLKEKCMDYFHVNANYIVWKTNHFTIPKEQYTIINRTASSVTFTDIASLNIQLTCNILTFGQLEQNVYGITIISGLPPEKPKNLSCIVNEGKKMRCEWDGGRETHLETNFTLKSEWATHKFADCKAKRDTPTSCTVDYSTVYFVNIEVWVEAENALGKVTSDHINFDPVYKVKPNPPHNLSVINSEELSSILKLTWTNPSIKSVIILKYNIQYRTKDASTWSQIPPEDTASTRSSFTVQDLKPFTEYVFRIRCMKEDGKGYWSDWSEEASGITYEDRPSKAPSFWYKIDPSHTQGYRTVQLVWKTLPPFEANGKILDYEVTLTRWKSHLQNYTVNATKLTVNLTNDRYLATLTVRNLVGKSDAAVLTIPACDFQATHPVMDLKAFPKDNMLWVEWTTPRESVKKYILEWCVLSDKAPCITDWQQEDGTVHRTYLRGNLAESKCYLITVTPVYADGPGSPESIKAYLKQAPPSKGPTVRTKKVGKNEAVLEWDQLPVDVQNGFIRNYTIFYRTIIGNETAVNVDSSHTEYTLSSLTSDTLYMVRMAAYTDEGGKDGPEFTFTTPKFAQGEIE
Briefly: competition ELISA: OSM-GST titrated against plate-bound wt OSM for gp130-Fc; single experiment.
Conditions: not given
The method, then: (§1) Plates were washed (×6 in PBS 0.05% tween 20, using Skatron Plate washer), tapped dry and blocked to reduce non-specific binding (200 µl/well, 1% BSA/PBS). Following 1 h incubation (room temperature on a shaking platform) the plates were tapped dry and wild type (wt) or mutant OSM-GST from Example 9b added (50 µl/well, 20–0.002 µg/ml, titrated in 1%BSA/PBS). As a positive control polyclonal anti-human OSM antibody (R&D Systems) was also tested (20–0.02 µg/ml). […] Following a 5 h incubation (room temperature on a shaking platform) the plates were washed (×6) and developed using ELISA Amplification System (Life Technologies) as manufacturer's instructions and the OD measured at 490 nm.
As a reminder, the IC50 is the point on the concentration scale where inhibition reaches its midpoint. For B2, the IC50 is 0.042 µg/mL and 0.036 µg/mL and 0.055 µg/mL.
Turning to B3, the IC50 is 0.386 µg/mL and 0.359 µg/mL and 0.4 µg/mL.
Same read-out and setting: the figure for B4 is 0.181 µg/mL and 0.255 µg/mL and 0.28 µg/mL; for B5 it is 0.32 µg/mL and 0.18 µg/mL and 0.168 µg/mL.
For B6, the 50% inhibitory concentration (IC50) is 0.108 µg/mL and 0.044 µg/mL and 0.101 µg/mL.
On the same count and under the same terms, the result for B7 reads 0.199 µg/mL and 0.078 µg/mL and 0.121 µg/mL; that for B8, 0.145 µg/mL and 0.18 µg/mL and 0.094 µg/mL; that for B9, 0.14 µg/mL and 0.22 µg/mL and 0.167 µg/mL.

Another series deals with T3, gp130 on HepG2 B6 cells (UniProt P40189 23-918, limits assumed).
T3 sequence (looked up): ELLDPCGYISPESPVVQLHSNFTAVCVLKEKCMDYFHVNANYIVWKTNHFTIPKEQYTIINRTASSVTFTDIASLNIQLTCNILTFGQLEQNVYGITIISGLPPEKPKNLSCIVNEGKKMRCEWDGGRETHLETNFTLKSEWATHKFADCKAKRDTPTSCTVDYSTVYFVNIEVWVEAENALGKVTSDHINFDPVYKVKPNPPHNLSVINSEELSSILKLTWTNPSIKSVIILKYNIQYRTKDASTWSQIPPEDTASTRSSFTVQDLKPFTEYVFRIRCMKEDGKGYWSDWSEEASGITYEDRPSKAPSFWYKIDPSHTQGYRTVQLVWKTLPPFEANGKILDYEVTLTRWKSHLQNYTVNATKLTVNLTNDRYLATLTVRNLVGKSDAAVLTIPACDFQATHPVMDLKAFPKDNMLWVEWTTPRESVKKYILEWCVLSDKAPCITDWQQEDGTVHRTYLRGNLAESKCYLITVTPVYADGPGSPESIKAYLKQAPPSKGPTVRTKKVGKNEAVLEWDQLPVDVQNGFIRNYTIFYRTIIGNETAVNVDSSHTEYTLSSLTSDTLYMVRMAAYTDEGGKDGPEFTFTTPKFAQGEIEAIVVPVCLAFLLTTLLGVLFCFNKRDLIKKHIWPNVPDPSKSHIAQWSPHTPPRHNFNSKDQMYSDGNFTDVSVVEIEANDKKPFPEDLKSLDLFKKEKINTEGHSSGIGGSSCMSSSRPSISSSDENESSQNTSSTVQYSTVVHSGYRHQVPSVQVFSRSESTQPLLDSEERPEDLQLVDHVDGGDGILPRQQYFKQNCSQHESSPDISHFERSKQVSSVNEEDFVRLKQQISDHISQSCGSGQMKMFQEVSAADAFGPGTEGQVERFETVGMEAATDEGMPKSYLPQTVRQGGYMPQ
Put plainly: cell-based or functional assay.
Conditions: not given
Turning to B2, the “sPAP HepG2 B6 assay: Expt 1 % (EC50 as % of wild type EC50)” value (from here on “sPAP HepG2 B6 assay: Expt 1 %”) is 55%, the “sPAP HepG2 B6 assay: Expt 1 EC50” value came to 0.0133 µg/mL, the “sPAP HepG2 B6 assay: Expt 2 % (EC50 as % of wild type EC50)” value (“sPAP HepG2 B6 assay: Expt 2 %” below) is 41% and the “sPAP HepG2 B6 assay: Expt 2 EC50” value was found to be 0.013 µg/mL. Besides, the “sPAP HepG2 B6 assay: Mean % of wild type EC50” value (shortened to “sPAP HepG2 B6 assay: Mean %”) stood at 48%.
For the molecule B3, the “sPAP HepG2 B6 assay: Expt 1 %” value worked out at 386%, the “sPAP HepG2 B6 assay: Expt 1 EC50” value turned out to be 0.093 µg/mL, the “sPAP HepG2 B6 assay: Expt 2 %” value came out at 32% and the “sPAP HepG2 B6 assay: Expt 2 EC50” value was 0.0103 µg/mL. Further, the “sPAP HepG2 B6 assay: Expt 3 % (EC50 as % of wild type EC50)” value came out at 106%, the “sPAP HepG2 B6 assay: Expt 3 EC50” value is 0.0408 µg/mL and the “sPAP HepG2 B6 assay: Mean %” value worked out at 175%.
Consider B4, for which the “sPAP HepG2 B6 assay: Expt 1 %” value stood at 118%, the “sPAP HepG2 B6 assay: Expt 1 EC50” value is 0.0286 µg/mL, the “sPAP HepG2 B6 assay: Expt 2 %” value is 86% and the “sPAP HepG2 B6 assay: Expt 2 EC50” value came to 0.0277 µg/mL. The “sPAP HepG2 B6 assay: Mean %” value is 102%.
In the case of B5, the “sPAP HepG2 B6 assay: Expt 1 %” value came out at 134%, the “sPAP HepG2 B6 assay: Expt 1 EC50” value was found to be 0.0324 µg/mL, the “sPAP HepG2 B6 assay: Expt 2 %” value is 256% and the “sPAP HepG2 B6 assay: Expt 2 EC50” value turned out to be 0.082 µg/mL. The “sPAP HepG2 B6 assay: Mean %” value was 195%.
For B6 the same measures were 71%, 0.017 µg/mL, 33%, 0.0105 µg/mL and 52%.
For B7 the same measures were 50%, 0.012 µg/mL, 69%, 0.0222 µg/mL and 59.5%.
For B8 the same measures were 52%, 0.0125 µg/mL, 26%, 0.0082 µg/mL and 39%.
For B9, the “sPAP HepG2 B6 assay: Expt 1 %” value was determined as 135%, the “sPAP HepG2 B6 assay: Expt 1 EC50” value was 0.0324 µg/mL, the “sPAP HepG2 B6 assay: Expt 2 %” value worked out at 43% and the “sPAP HepG2 B6 assay: Expt 2 EC50” value is 0.0138 µg/mL. In addition, the “sPAP HepG2 B6 assay: Expt 3 % (EC50 as % of wild type EC50)” value worked out at 124%, the “sPAP HepG2 B6 assay: Expt 3 EC50” value stood at 0.0473 µg/mL and the “sPAP HepG2 B6 assay: Mean %” value amounted to 101%.

The target of another series is T2, gp130-Fc fusion protein. Put plainly: competition ELISA: OSM-GST titrated against plate-bound wt OSM for gp130-Fc; mean.
Conditions: not given
The method, then: as §1
As to B2, the IC50 amounted to 0.044 µg/mL.
In turn, B3 displayed an IC50 of 0.382 µg/mL.
On the same count and under the same terms, the figure for B4 is 0.239 µg/mL; for B5 it is 0.223 µg/mL.
On the same count and under the same terms, the figure for B6 is 0.084 µg/mL; for B7 it is 0.133 µg/mL.
Still for that read-out and setting: the result for B8 reads 0.14 µg/mL.
B9 came in with an IC50 of 0.176 µg/mL.

The target in the next series is T4, oncostatin M (hOSM, mature) (Homo sapiens) (UniProt P13725).
T4 sequence: B2 chain with A25Q
Put plainly: filter. The note with it: 2'-F pyrimidines; no affinity at any concentration tested.
As usually defined, the Kd is the equilibrium constant for the complex coming apart. The molecule “GGGAGGACGAUGCGGNNNNNNNNNNNNNNNNNNNNNNNNNNNNNNNNNNNNNNNNCCGCAUCGUCCUCCC [40N7 starting random RNA pool]” came in with a Kd above 10 µM.
